The data set deals with MS2 coat protein. As to the kind of experiment: apparent KD of MS2 coat protein; designed switch direction (-1 OFF switch, 1 ON switch): 1; higher = weaker reporter binding. In short, it runs like this: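 Designed RNA switches with common flanks were made on Illumina chips by stalled E. coli RNA polymerase. Titration with SNAP-549-labelled MS2 coat protein doubled from 0.7 or 1.5 nM up to 3 µM. Apparent KD is each design's median over clusters after curve-fitting normalised fluorescence.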

The mark [1] stands for this setting: input ligand: microRNA oligo, concentration not stated.
The mark [2] stands for this setting: Eterna round: R95, input ligand: microRNA oligo, concentration not stated.
Where [3] appears, read: Eterna round: R95, input ligand: FMN 200 uM.
[4] abbreviates: Eterna round: R95, input ligand: none.

In the case of “AUUGCUUACGCAGGAUAUGAUGCGAAAAUUGCGUCAGAAGGGUGAAAAGAAUCGUUGCAAGAAGACAUGAGGAUCACCCAUGUC [SameState NG1 #94] (Eterna round: R96, puzzle: Same State NG 1)”, the “apparent KD of MS2 coat protein” value reads like this: (input ligand: FMN 200 uM) 29.9 nM; under setting [1], 28.2 nM; (input ligand: none) 59.8 nM.
In the case of “CUCUCACAUGAGGAUCACCCAUGUCCACCUCCGUGAGGAUAUAGAUAAUAAAUACAUUUACUAGAAGGCGCAUCCC [Bay] (puzzle: Same State 1)”, the “apparent KD of MS2 coat protein” value under setting [2] came out at 263 nM.
With “AGCCGAAGCGCAGGAUAUACAUGGAUACAUGAGGAUCACCCAUGUAGCAACACGUGGUAGUGAUUGUAGAAGGGUGCUCGGCGC [Omei SS(NG)2 Cv17] (Eterna round: R96, puzzle: Same State NG 2)”, the “apparent KD of MS2 coat protein” value reads like this: (input ligand: FMN 200 uM) 27.4 nM; under setting [1], 35.5 nM; (input ligand: none) 54.6 nM.
For the sequence “GUUACAUGAGGAUCACCCAUGUGUGUGUGGGAGUAAGUGGCUUAGGAUAUCUAUGAUUUAAGUUAAGAGAAGGAAGAUUGUUGU [SS-NG3-LRO02] (Eterna round: R96, puzzle: Same State NG 3)”, the “apparent KD of MS2 coat protein” value was found to be 194 nM (input ligand: FMN 200 uM), 204 nM under setting [1] and 272 nM (input ligand: none).
Consider “AGCUAGUACCGAGGAUAUACAUACAUGAGGAUCACCCAUGUAUACAUGAAUUAUUGAGACUACAUGUAGAAGGCGGUACUAGCA [JL SSNG2 1.20] (Eterna round: R96, puzzle: Same State NG 2)”, for which the “apparent KD of MS2 coat protein” value runs as follows: (input ligand: FMN 200 uM) 16.6 nM; under setting [1], 35.7 nM; (input ligand: none) 64.9 nM.
Regarding “ACACCACAUGAGGAUCACCCAUGUGUCAAUAACACAGGAUAUCACCCGGAAAACAACGGGUGAGAAGGGUGACCGA [Edan] (puzzle: Same State 1)”, the “apparent KD of MS2 coat protein” value under setting [3] is 107 nM, the “apparent KD of MS2 coat protein” value under setting [2] was determined as 44.6 nM and the “apparent KD of MS2 coat protein” value under setting [4] came out at 75.8 nM.
For “GGAUGAUUAAUAGGAUAUUAUUUGUAAAUUGGUUAAGAAGGAUUAAUGAUUUAAACGACCUGUUACAUGAGGAUCACCCAUGUU [JR_SSNG1_Sub090] (Eterna round: R96, puzzle: Same State NG 1)”, the “apparent KD of MS2 coat protein” value under setting [1] came to 33.2 nM.
Turning to “GCUCGACGUAUUGUCUACAUGAGGAUCACCCAUGUAGGUGCGGAGGAUAUUUACGUGUCUCAUGUAGAGAAGGCCGUGUCGAGC [SameState NG3 #96] (Eterna round: R96, puzzle: Same State NG 3)”, the “apparent KD of MS2 coat protein” value came out at 37.1 nM (input ligand: FMN 200 uM), 216 nM under setting [1] and 329 nM (input ligand: none).
For “UGUUGUAUUACAGGAUAUCUAGGAUUUUUAUUUAGAGAAGGGUAUUCACAUGAGGAUCACCCAUGUAUAUACGAGGAAGUUGUG [JMF's solution 31] (Eterna round: R96, puzzle: Same State NG 1)”, under setting [1], the “apparent KD of MS2 coat protein” value was found to be 30.6 nM.
As for “GGCCUGCCGCAAGGAUAUGAAGCUUUCGCUCCGUCAGAAGGUGCACAUGAGGAUCACCCAUGUAGGCAGGCCAAGAACUAAAAC [Veveanus] (Eterna round: R96, puzzle: Same State NG 1)”, the “apparent KD of MS2 coat protein” value came to 213 nM (input ligand: FMN 200 uM), 42 nM under setting [1] and 123 nM (input ligand: none).
With “AUAUGAGAAGCAGGAUAUGCGGAGAAGAAAGAAGCAGAAGGGCUUAUGGGACAACAUGAGGAUCACCCAUGUUCUCUGCGAUGA [AK SSNG1-V2-3.1] (Eterna round: R96, puzzle: Same State NG 1)”, the “apparent KD of MS2 coat protein” value (input ligand: FMN 200 uM) was 60.6 nM, the “apparent KD of MS2 coat protein” value under setting [1] was 148 nM and the “apparent KD of MS2 coat protein” value (input ligand: none) stood at 135 nM.
For “GUGGUCAGACAUGAGGAUCACCCAUGUGGAAUAAAUAAGGAGAAGGAUAUGUAAUAUAGGAUAUAACAGAAGGUUUGGUUGGUG (Eterna round: R96, puzzle: Same State NG 3)”, the “apparent KD of MS2 coat protein” value (input ligand: FMN 200 uM) was determined as 105 nM, the “apparent KD of MS2 coat protein” value under setting [1] was 69.7 nM and the “apparent KD of MS2 coat protein” value (input ligand: none) came to 96.5 nM.
On to “AUAAAACAUGAGGAUCACCCAUGUCAACAAAGUCGAGGAUAUGGGUAAAUAAAAUAAGAACCAGAAGGCGAAUAAU [salish99_ss1_r3_028] (Eterna round: R96, puzzle: Same State 1)”, for which the “apparent KD of MS2 coat protein” value is, setting by setting: (input ligand: FMN 200 uM) 122 nM; under setting [1], 713 nM; (input ligand: none) 941 nM.
As for “UGUUAACAUGAGGAUCACCCAUGUCAAAUGAAUCGAGGAUAUGGGAAGUAAUAAGAUAAACCAGAAGGCGAAGUUG [Altered State 1-16 - Jieux - Same State 1] (puzzle: Same State 1)”, the “apparent KD of MS2 coat protein” value stood at 54.7 nM under setting [3], 302 nM under setting [2] and 229 nM under setting [4].
In the case of “UCUUGGUUUUUGCUCGUUUUUUGUGUUGAACAUGAGGAUCACCCAUGUAUUGUACGGUCCAGUUUAAUAAUGGUCCG [JMF 30] (puzzle: Sensor for hsa-mir-208a)”, the “apparent KD of MS2 coat protein” value came to 23.4 nM under setting [3], 14 nM under setting [2] and 25 nM under setting [4].
As for “AAUUUAAUACAUGAGGAUCACCCAUGUAAUACUUGUAAGAUCAAGGAUAUCAGCUCGAUUAGAGCUGAGAAGGUGAUCACAUGU [SSNG3/19-D2] (Eterna round: R96, puzzle: Same State NG 3)”, under setting [1], the “apparent KD of MS2 coat protein” value stood at 21.6 nM.
In the case of “GCUGCAAAGGCAGGAUAUGGGUUCAGAGCGGAAGUGCGCUUUGACACAUGAGGAUCACCCAUGUCCCAGAAGGGCCCAAGCGGC [Ateanso] (Eterna round: R96, puzzle: Same State NG 2)”, the “apparent KD of MS2 coat protein” value by setting is: (input ligand: FMN 200 uM) 21.2 nM; under setting [1], 120 nM; (input ligand: none) 178 nM.
With “GGAGCCGGUACUGAGGAUAUUCAUAUUAAAACAUGAGGAUCACCCAUGUGGGCCAGAAGGCCUUGGGAGAAGGCAGAUCGGCUCC [Biseusra - 3] (puzzle: Same State 2)”, the “apparent KD of MS2 coat protein” value reads like this: under setting [3], 19 nM; under setting [2], 93.3 nM; under setting [4], 145 nM.
As for “CGUCCGGCCUGUGCUGGCCGGUAUCAUGUACAUGAGGAUCACCCAUGUUCAUGUGCAGGCUUUUUGCUCGUCUUGUG [salish99_mir208a_012] (puzzle: Sensor for hsa-mir-208a)”, the “apparent KD of MS2 coat protein” value runs as follows: under setting [3], 20.5 nM; under setting [2], 12.8 nM; under setting [4], 19.9 nM.
“AAAAAACAUGAGGAUCACCCAUGUCAAAAGACUCGAGGAUAUGGGCAAAUAAAAUAAGAACCAGAAGGCGAGAAAA [salish99_ss1_r3_101] (puzzle: Same State 1)”: the “apparent KD of MS2 coat protein” value under setting [3] was found to be 20 nM, the “apparent KD of MS2 coat protein” value under setting [2] came to 36.3 nM and the “apparent KD of MS2 coat protein” value under setting [4] worked out at 31.7 nM.
In the case of “CGAUACACGGCAGGAUAUCGAUUCCAAAGGAAUCGAGAAGGGCCUCAUGUCGUGGAAACGUGACAUGAGGAUCACCCAUGUUGC [Omei SS(NG)1 Cv20] (Eterna round: R96, puzzle: Same State NG 1)”, the “apparent KD of MS2 coat protein” value reads like this: (input ligand: FMN 200 uM) 84.4 nM; under setting [1], 36.1 nM; (input ligand: none) 55.4 nM.
“GAGAGAGGGUGAGGAUAUUUAGUGAUAAUGAUAAGAGAAGGCACAGACAUGAGGAUCACCCAUGUGGGAAUAAUCCAGAGAGAG [Parity 8 - Jieux - Same State NG 1] (Eterna round: R96, puzzle: Same State NG 1)”: the “apparent KD of MS2 coat protein” value under setting [1] worked out at 167 nM.
As to “GUAUAACAUGAGGAUCACCCAUGUCAACAAAGUCGAGGAUAUGGGCAAUUAUAAUUAGAACCAGAAGGCGAAUAGU [Mat - Same State 1 - Mod of UCT - D43] (puzzle: Same State 1)”, the “apparent KD of MS2 coat protein” value by setting is: under setting [3], 30.8 nM; under setting [2], 287 nM; under setting [4], 251 nM.
Take “GCCGCGAAGCGAGGAUAUACUGUCCGAGAGCCGCAAACAUGAGGAUCACCCAUGUAGGUGAGACCGUAGAAGGCGUAAGCGCAA [Eternabot solution 19] (Eterna round: R96, puzzle: Same State NG 2)”: the “apparent KD of MS2 coat protein” value (input ligand: FMN 200 uM) worked out at 46 nM, the “apparent KD of MS2 coat protein” value under setting [1] stood at 235 nM and the “apparent KD of MS2 coat protein” value (input ligand: none) was determined as 331 nM.
The corresponding values for “AGAUCAUGACGAGGAUAUGGUACAUGAGGAUCACCCAUGUAUGUAUCAUAACGCGAAUGACGAAUCCAGAAGGCGUCGUGGUCA [JL SSNG2 1.12] (Eterna round: R96, puzzle: Same State NG 2)” are 9.94 nM, 14.7 nM and 22.7 nM.
For “GCUCCAAACACAGGAUAUGGAAUCUGAUUCAUGCGAGUGACAUGAGGAUCACCCAUGUCCGGCAGCCAGAAGGGUGGGAAACAU [Eternabot solution 27] (Eterna round: R96, puzzle: Same State NG 2)”, the “apparent KD of MS2 coat protein” value reads like this: (input ligand: FMN 200 uM) 184 nM; under setting [1], 151 nM; (input ligand: none) 201 nM.
For “CAGGCGCAACAUGAGGAUCACCCAUGUGCUAACUUAACAGGGCAGGAUAUGGAAGCUCUAUGUCUCCAGAAGGGCUGGCGGAGC [Eternabot solution 38] (Eterna round: R96, puzzle: Same State NG 3)”, the “apparent KD of MS2 coat protein” value reads like this: (input ligand: FMN 200 uM) 48.2 nM; under setting [1], 32.6 nM; (input ligand: none) 53.3 nM.
For the sequence “AUUAAUAAUCGAGGAUAUCACGUCGUUUAGACGUGAGAAGGCGAUCAUAACAUGAGGAUCACCCAUGUAUUACAUGAAGUUAAU [SSNG1/4-B3] (Eterna round: R96, puzzle: Same State NG 1)”, the “apparent KD of MS2 coat protein” value is 37.8 nM (input ligand: FMN 200 uM), 26.3 nM under setting [1] and 39.3 nM (input ligand: none).

The record behind these values is the supplement of paper PMC9170038.
